Test system: btGDF83.1 TALEN pair (synthetic (TALE-FokI))
Test: cell_activity
Details: SURVEYOR; bovine fibroblasts; active at 30 and 37 C; pair called btGDF8.1 and btGDF83.1

bovine GDF8 exon 3 target
activity (% chromosomes cleaved): < 16

From patent publication US20140123330
